Test results as given in US20010041670A1 (published 2001).

Key:
Thrombospondin-1 (TSP-1) [1] = molecular target: T1, Thrombospondin-1 (TSP-1) (human, UniProt P07996 19-1170); experiment: cell-based or functional assay
Thrombospondin-1 (TSP-1) [2] = molecular target: T1, Thrombospondin-1 (TSP-1); experiment: solid phase competition: 125I-TSP-1 binding to immobilized HRGP

T1 sequence (P07996 19-1170): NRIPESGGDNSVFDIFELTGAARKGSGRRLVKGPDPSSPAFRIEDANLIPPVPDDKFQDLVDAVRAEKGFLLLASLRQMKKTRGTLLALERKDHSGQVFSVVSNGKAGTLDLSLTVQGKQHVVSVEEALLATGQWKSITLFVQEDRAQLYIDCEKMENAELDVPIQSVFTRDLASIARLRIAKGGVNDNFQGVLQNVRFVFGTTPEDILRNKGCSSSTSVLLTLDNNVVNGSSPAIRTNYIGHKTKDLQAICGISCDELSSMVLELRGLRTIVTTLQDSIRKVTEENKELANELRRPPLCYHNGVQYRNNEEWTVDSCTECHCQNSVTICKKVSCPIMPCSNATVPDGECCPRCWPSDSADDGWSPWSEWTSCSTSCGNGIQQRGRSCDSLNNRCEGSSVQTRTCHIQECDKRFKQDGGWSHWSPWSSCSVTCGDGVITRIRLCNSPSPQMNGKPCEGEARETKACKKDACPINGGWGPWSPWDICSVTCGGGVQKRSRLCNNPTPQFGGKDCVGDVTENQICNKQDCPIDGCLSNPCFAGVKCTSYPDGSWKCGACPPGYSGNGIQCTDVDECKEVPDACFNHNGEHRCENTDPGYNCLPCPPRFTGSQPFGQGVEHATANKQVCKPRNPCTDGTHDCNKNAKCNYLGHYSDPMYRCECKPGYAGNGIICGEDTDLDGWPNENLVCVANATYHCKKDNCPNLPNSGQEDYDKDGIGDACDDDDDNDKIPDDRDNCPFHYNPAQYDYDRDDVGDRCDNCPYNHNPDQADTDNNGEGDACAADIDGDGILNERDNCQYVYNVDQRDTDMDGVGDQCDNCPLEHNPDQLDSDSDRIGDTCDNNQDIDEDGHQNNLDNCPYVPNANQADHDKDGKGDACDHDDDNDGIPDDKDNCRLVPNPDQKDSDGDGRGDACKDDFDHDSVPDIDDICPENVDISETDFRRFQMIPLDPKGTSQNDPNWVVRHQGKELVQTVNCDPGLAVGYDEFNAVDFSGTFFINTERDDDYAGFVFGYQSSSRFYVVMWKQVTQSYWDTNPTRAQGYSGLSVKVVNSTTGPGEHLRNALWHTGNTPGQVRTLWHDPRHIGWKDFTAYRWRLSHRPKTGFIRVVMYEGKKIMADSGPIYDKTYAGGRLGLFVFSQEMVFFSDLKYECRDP

B1: Histidine-rich glycoprotein (HRGP) (other, human, UniProt P04196 19-525, looked up)
chain: VSPTDCSAVEPEAEKALDLINKRRRDGYLFQLLRIADAHLDRVENTTVYYLVLDVQESDCSVLSRKYWNDCEPPDSRRPSEIVIGQCKVIATRHSHESQDLRVIDFNCTTSSVSSALANTKDSPVLIDFFEDTERYRKQANKALEKYKEENDDFASFRVDRIERVARVRGGEGTGYFVDFSVRNCPRHHFPRHPNVFGFCRADLFYDVEALDLESPKNLVINCEVFDPQEHENINGVPPHLGHPFHWGGHERSSTTKPPFKPHGSRDHHHPHKPHEHGPPPPPDERDHSHGPPLPQGPPPLLPMSCSSCQHATFGTNGAQRHSHNNNSSDLHPHKHHSHEQHPHGHHPHAHHPHEHDTHRQHPHGHHPHGHHPHGHHPHGHHPHGHHPHCHDFQDYGPCDPPPHNQGHCCHGHGPPPGHLRRRGPGKGPRPFHCRQIGSVYRLPPLRKGEVLPLPEANFPSFPLPHHKHPLKPDNQPFPQSVSESCPGKFKSGFPQVSMFFTHTFPK
For B1, the “area of neovascularization relative to bFGF alone, corneal assay, pellets with bFGF, TSP-1 and HRGP (100 ng, HRGP:TSP-1 molar ratio 3:1)” value (Thrombospondin-1 (TSP-1) [1]) was 82.5%.

B2: CD36 FP298-439 (other, UniProt P16671 298-439, looked up)
chain: KAFASPVENPDNYCFCTEKIISKNCTSYGVLDISKCKEGRPVYISLPHFLYASPDVSEPIDGLNPNEEEHRTYLDIEPITGFTLQFAKRLQVNLLVKPSEKIQVLKNLKRNYIVPILWLNETGTIGDEKANMFRSQVTGKIN
notes: also called GST-CD36 fusion protein; not shown: Glutathione-S-transferase fusion partner
B2: no binding (Thrombospondin-1 (TSP-1) [2]).
